B1: unnamed (parent)
chain 1: FENAIKKTKNQENNLTLLPIKSTEEEKDDIKNGKDIKKEIDNDKENIKTNNAKDHSTYIKSYLNTNVNDGLKYLFIPSHNSFIKKYSVFNQINDGMLLNEKNDVKNNEDYKNVDYKNVNFLQYDFKELSNYNIANSIDILQEKEGHLDFVIIPHYTFLDYYKHLSYNSIYHKYSTHGKYIAVDAFIKKINERYDQVKSKCNDIKNDLIATIKKLEHPYDINNKNDDSYRYDISEEIDDKSEETDDETEEVEDSIQDTDSNHTPSNKKKNDLMNRTFKKMMDEYNTKKKKLIKCIKNHENDFNKICMDMKNYGTNLFEQLSCYNNNFCNTNGIRYHYDEYIHKLILSVKSKNLNKDLSDMTNILQQSELLLTNLNKKMGSYIYIDTIKFIHKEMKHIFNRIEYHTKIINDKTKIIQDKIKLNIWRTFQKDELLKRILDMSNEYSLFITSDHLRQMLYNTFYSKEKHLNNIFHHLIYVLQMKFNDVPIKMEYFQTYKKNKPLTQ
chain 2: EPGTVFTTVEDLGSKILLTCSLNDSATEVTGHRWLKGGVVLKEDALPGQKTEFKVDSDDQWGEYSCVFLPEPMGTANIQLHGPPRVKAVKSSEHINEGETAMLVCKSESVPPVTDWAWYKITDSEDKALMNGSESRFFVSSSQGRSELHIENLNMEADPGQYRCNGTSSKGSDQAIITLRVRSHLAAL

Variants of: B1
Experiment: SPR
Details: read off a plot; for response (response units): with partner chain of the complex shown, plateau of the highest curve of four 2-fold serial dilutions (600 to 75 nM); for screen value: with partner chain of the complex shown;

## chain 1 Q195K
  response (response units): 360
  screen value: 2.4 s

## chain 1 R192T
  response (response units): 180
  screen value: 2.3 s

## chain 1 H176Y
  response (response units): 340
  screen value: 2.4 s

## chain 1 Y173S
  response (response units): 260
  screen value: 2.3 s

## chain 1 D124H
  response (response units): 220
  screen value: 2.6 s

## chain 1 Y179C
  response (response units): 130
  screen value: 1.5 s

Source: article PMC6793842
